Assays:
[1] = target: T1, biotinylated splice variant of the extracellular domain of human CD33 (residues 140-259, constant domain … (human, UniProt P20138 140-259, biotinylated with BirA-GST (Avi tag))); assay: SPR (ProteOn XPR36), biotinylated splice variant CD33 on NLC chip
T1 construct: Bought from Evitria; a second Fc chain may be present, not described; also called splice variant CD33; spliced variant; not shown: C-terminal Fc tag and Avi tag
T1 chain: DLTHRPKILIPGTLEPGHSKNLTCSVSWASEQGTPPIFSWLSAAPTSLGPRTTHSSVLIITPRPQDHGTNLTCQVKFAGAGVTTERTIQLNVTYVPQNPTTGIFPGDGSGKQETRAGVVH

[2] = target: T1, biotinylated splice variant of the …; assay: HTRF, 6 nM biotinylated hCD33-C2-Fc(kih)-Avi, Strep-Tb and anti-6His-d2
Procedure: First, a binding experiment has been performed against full-length (V/C2 domains) and truncated CD33 (C2 domain) by HTRF, using crude extracts of the three CD33-specific binding proteins DARPin® protein #1. DARPin® protein #9 and DARPin® protein #14. Binding to the CD33 target was detected using Strep-Tb and anti-His-D2 HTRF reagents. In brief, crude extract of DARPi® protein #1, DARPin® protein #9 and DARPin® protein #14 was diluted 1:250 (final 1:1000) with PBSTB and added into a 384-well plate (PerkinElmer, 6008280). Then, the biotinylated target_hCD33-Fc(kih)-Avi (full-length CD33; purchased from Evitria) and hCD33-C2-Fc(kih)-Avi (truncated CD33; purchased from Evitria) respectively was diluted to 8 nM (final 6 nM) and mixed with the HTRF reagents Mab Anti-6His-d2 and Strep-Tb, both 1:200 diluted (final 1:400). As depicted in FIG. 5, all three CD33 specific binding proteins DARPin® protein #1. DARPin® protein #9 and DARPin® protein #14 show binding to the full-length CD33 but only DARPin® protein #9 binds to the truncated CD33 target.

[3] = target: T1, biotinylated splice variant of the …; assay: SPR (ProteOn XPR36), biotinylated splice variant CD33 on NLC chip, DARPin at 50 nM, single trace

Binder | binding result [1] | further results
DARPin® protein #16 in TCE format (formatted with a CD3-specific ankyrin repeat domain) (designed binder, Crude extract HTRF construct also carried a C-terminal Flag tag; not shown: which one,) MRGSHHHHHHGSDLGKKLLQAARAGQLDEVRELLKAGADVNAKDHQGETPLHLAASQGHLEIVEVLLKAGADVNAKDLAGYTPLHLAAWTGHLEIVEVLLKAGADVNAKDQWGRTPLHIAAASGHLEIVEVLLKAGADVNAQDKSGKTPADLAARAGHQDIAEVLQKAA | no binding (tested: 50 nM) | –
DARPin® protein #7 in TCE format (formatted with a CD3-specific ankyrin repeat domain) (designed binder, Crude extract HTRF construct also carried a C-terminal Flag tag; not shown: which one,) MRGSHHHHHHGSDLGLKLLRAAYDGQDDEVRILLAAGADVNAKDWQGFTPLHYAAVLGHLEIVEVLLKAGADVNAKDQEGATPLHLAALHGHLEIVEVLLKAGADVNAQDESGWTPADLAAKWGHEDIAEVLQKAA | no binding (tested: 50 nM) | –
DARPin® protein #1, monovalent CD33 specific binding protein (designed binder, Crude extract in the HTRF; also called DARPin® protein #91 [sic]) MRGSHHHHHHGSDLGWKLLLAASRGQDDEVRILLAAGADVNAKDIDEGYTPLHIAAYYGHLEIVEVLLKAGADVNAKDRYGKTPLHLAAISGHEDIAEVLLKAGADVNAQDDKGDTPADLAADYGHEDIAEVLQKAA | – | binding result [2]: no binding
DARPin® protein #1 in TCE format (formatted with a CD3-specific ankyrin repeat domain) (designed binder, not shown: which one,) MRGSHHHHHHGSDLGWKLLLAASRGQDDEVRILLAAGADVNAKDIDEGYTPLHIAAYYGHLEIVEVLLKAGADVNAKDRYGKTPLHLAAISGHEDIAEVLLKAGADVNAQDDKGDTPADLAADYGHEDIAEVLQKAA | no binding (tested: 50 nM) | –
DARPin® protein #14, monovalent CD33 specific binding protein (designed binder, Crude extract in the HTRF) MRGSHHHHHHGSDLGWKLLNAAIAGQDDEVRILLAAGADVNAKDTEYGWTPLHIAASDGHLEIVEVLLKAGADVNAKDYAGSTPLHAAAFVGHLEIVEVLLKAGADVNAQDHQGQTPADLAAQQGHVDIAEVLQKAA | – | binding result [2]: no binding
DARPin® protein #14 in TCE format (formatted with a CD3-specific ankyrin repeat domain) (designed binder, Crude extract HTRF construct also carried a C-terminal Flag tag; not shown: which one,) MRGSHHHHHHGSDLGWKLLNAAIAGQDDEVRILLAAGADVNAKDTEYGWTPLHIAASDGHLEIVEVLLKAGADVNAKDYAGSTPLHAAAFVGHLEIVEVLLKAGADVNAQDHQGQTPADLAAQQGHVDIAEVLQKAA | no binding (tested: 50 nM) | –
DARPin® protein #15 in TCE format (formatted with a CD3-specific ankyrin repeat domain) (designed binder, Crude extract HTRF construct also carried a C-terminal Flag tag; not shown: which one,) MRGSHHHHHHGSDLGKKLLQAARAGQLDEVRELLKAGADVNAKDLIGWTPLHLAAHYGHLEIVEVLLKAGADVNAKDAQGWTPLHIAAWEGHLEIVEVLLKAGADVNAKDWTGETPLHLAAFEGHLEIVEVLLKAGADVNAQDKSGKTPADLAARAGHQDIAEVLQKAA | no binding (tested: 50 nM) | –
DARPin® protein #5 in TCE format (formatted with a CD3-specific ankyrin repeat domain) (designed binder, Crude extract HTRF construct also carried a C-terminal Flag tag; not shown: which one,) MRGSHHHHHHGSDLSKKLLQAARAGQLDEVRELLKAGADVNAKDQIGQTPLHLAAQSGHLEIVEVLLKAGADVNAKDTEGWTPLHVAAWEGHLEIVEVLLKAGADVNAKDWTGETPLHLAAYQGHLEIVEVLLKAGADVNAQDKSGKTPADLAARAGHQDIAEVLQKAA | no binding (tested: 50 nM) | –
DARPin® protein #9 in TCE format (formatted with a CD3-specific ankyrin repeat domain) (designed binder, Crude extract HTRF construct also carried a C-terminal Flag tag; not shown: which one,) MRGSHHHHHHGSDLGYKLLWAASAGQDDEVRILLAAGADVNAKDKDGATPLHFAAAKGHLEIVEVLLKAGADVNAKDNRGATPLHYVAAASGHLEIVEVLLKAGADVNAQDEWGNTPADLAAIYGHGDIAEVLQKAA | – | Kd [3]: 1.9 nM
DARPin® protein #8 in TCE format (formatted with a CD3-specific ankyrin repeat domain) (designed binder, Crude extract HTRF construct also carried a C-terminal Flag tag; not shown: which one,) MRGSHHHHHHGSDLGWKLLSAATLGQDDEVRILLAAGADVNAKDEWGKTPLHWAASTGHLEIVEVLLKAGADVNAKDLWGHTPLHEAAAKGHLEIVEVLLKAGADGNAQDNIGDTPADLAAYQGHEDIAEVLQKAA | no binding (tested: 50 nM) | –
DARPin® protein #3 in TCE format (formatted with a CD3-specific ankyrin repeat domain) (designed binder, Crude extract HTRF construct also carried a C-terminal Flag tag; not shown: which one,) MRGSHHHHHHGSDLGVKLLRAAFHGQDDEVRILLAAGADVNAKDTDGETPLHYAAQFGHLEIVEVLLKAGADVNAKDAYGATPLHWAAWHGHLEIVEVLLKAGADVNAQDVSGATPADLAAKVGHEDIAEVLQKAA | no binding (tested: 50 nM) | –

— patent publication US20240317852A1 (Molecular Partners, published 2024)
